A word on the stoichiometry N: it is the number of molecules, sites or subunits per partner or assembly.

Data set [1] has as its target FANCJ-R707C with a C-terminal FLAG tag (human) (UniProt Q9BX63).
The target in data set [2] is T1, FANCJ-wild type (WT) with a C-terminal FLAG tag (human), Q9BX63.
T1 chain: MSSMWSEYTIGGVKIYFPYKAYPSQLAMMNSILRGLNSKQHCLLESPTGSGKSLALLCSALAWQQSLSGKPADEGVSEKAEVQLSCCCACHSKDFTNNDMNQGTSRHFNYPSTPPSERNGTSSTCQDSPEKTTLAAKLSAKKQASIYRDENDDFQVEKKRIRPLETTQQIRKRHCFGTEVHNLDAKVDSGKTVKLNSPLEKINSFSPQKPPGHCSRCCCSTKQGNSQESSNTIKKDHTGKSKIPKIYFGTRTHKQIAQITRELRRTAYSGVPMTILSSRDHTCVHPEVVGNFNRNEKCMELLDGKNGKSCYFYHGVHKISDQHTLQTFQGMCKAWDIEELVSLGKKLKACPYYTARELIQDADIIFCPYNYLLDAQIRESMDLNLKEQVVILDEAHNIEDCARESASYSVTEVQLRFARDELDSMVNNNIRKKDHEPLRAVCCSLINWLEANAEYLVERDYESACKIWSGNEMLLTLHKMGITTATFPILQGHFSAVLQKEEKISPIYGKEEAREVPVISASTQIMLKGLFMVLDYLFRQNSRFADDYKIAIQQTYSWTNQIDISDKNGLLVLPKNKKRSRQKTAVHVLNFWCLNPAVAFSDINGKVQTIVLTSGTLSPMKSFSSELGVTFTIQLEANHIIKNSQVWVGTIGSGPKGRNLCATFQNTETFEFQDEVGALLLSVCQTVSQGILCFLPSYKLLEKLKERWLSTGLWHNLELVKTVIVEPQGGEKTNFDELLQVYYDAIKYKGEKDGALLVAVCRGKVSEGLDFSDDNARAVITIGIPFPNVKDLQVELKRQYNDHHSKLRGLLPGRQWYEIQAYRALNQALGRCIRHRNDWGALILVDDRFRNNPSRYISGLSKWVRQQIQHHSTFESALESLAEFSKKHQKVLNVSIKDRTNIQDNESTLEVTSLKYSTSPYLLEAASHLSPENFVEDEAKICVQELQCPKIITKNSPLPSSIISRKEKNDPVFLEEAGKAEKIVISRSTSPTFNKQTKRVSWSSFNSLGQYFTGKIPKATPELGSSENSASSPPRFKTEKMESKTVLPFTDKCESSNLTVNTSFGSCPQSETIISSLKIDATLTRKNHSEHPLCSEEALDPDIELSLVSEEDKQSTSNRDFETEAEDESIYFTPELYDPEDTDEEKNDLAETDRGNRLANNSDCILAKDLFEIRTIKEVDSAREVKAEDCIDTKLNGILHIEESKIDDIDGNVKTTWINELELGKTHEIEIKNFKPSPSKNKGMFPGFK
The experiment in a line: SEC; purified recombinant FANCJ applied to a Superdex-200 column on an AKTA FPLC, UV detection, calibrated with molecular mass markers; dimer and monomer peaks. The settings on record: remark: other sources report otherwise. Background: Size exclusion chromatography separates by hydrodynamic size, large species first.

Data set [3] deals with the molecule itself. The description is as above.
The next data set addresses T2, FANCJ-WT (Homo sapiens, UniProt Q9BX63 1-1249).
T2 sequence: T1 chain
Kind of data set: EMSA; 5 mM Mg2+, no ATP; EMSA: 40 mM Tris-HCl pH 7.4, 25 mM KCl, 5 mM MgCl2, 2 mM DTT, 2% glycerol, 100 ng/ul BSA, no ATP, 0.5 nM DNA, 24 C 30 min; native 5% PAGE in 1x TBE at 4 C. On the technique in general: A gel shift assay detects complexes by their altered migration in electrophoresis.

Substitutions are numbered along the chain they refer to. In names and notes the source's numbering stands.

Consider RPA (complex), for which the percent of 34 bp forked duplex DNA substrate (0.5 nM) unwound by FANCJ-R707C (20 nM) with increasing RPA, up to 8 nM, 30°C, 15 min (stimulation of helicase activity by RPA) in data set [1] was 45%.

B1: FANCJ-wild type (WT) with a C-terminal FLAG tag, Q9BX63 1-1249 (enzyme)
chain: T1 chain
Take B1: in data set [2], the stoichiometry N is 2.

B2: FANCJ-H396D with a C-terminal FLAG tag (enzyme, human, UniProt Q9BX63 1-1249, looked up)
chain: T1 chain with H396D
As to B2, the “stoichiometry N” value in data set [3] came out at 2.

Consider TTTTTTTTTTTTTTTTTTTTTTCCCAGTAAAACGACGGCCAGTGC (ssDNA) [single-stranded 45-mer (DC26)], for which, in the data set with FANCJ-WT, the binding result is recorded as “binds”.
